Test in all cases: cell-based or functional assay
Test [1] has as its target non-human primate IL-13 (rhesus and cynomolgus, identical sequences) with carboxyl terminus affinity tag … (rhesus and cynomolgus monkey).
Test [2] deals with human IL-13 (recombinant, bacterially derived, Peprotech) (human, UniProt P35225 15-146).
Test [3] concerns the target native (naturally occurring) human IL-13 released from HDLM-2 cells (human, UniProt P35225 15-146).

Sequence of human IL-13 (recombinant, bacterially derived, Peprotech) (P35225 other isoform, or with tags, fused parts or gaps): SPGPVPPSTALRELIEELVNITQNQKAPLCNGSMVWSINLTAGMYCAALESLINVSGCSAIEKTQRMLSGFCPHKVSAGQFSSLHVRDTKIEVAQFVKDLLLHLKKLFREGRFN
Sequence of non-human primate IL-13 (rhesus and cynomolgus, identical sequences) with carboxyl terminus affinity tag … (rhesus and cynomolgus monkey) (Q864V6 19-132): as the sequence (P35225 other isoform, or with tags, fused parts or gaps) above, with G3S, P7R, R12K, M44V, S69N, H85R, L102V counted along it
Sequence of native (naturally occurring) human IL-13 released from HDLM-2 cells (P35225 other isoform, or with tags, fused parts or gaps): as the sequence (P35225 other isoform, or with tags, fused parts or gaps) above

B1: BAK502G9 IgG4 (antibody, V domains shown)
VH: QVQLVQSGAEVKKPGASVKVSCKASGYTFTNYGLSWVRQAPGQGLEWMGWISANNGDTNYGQEFQGRVTMTTDTSTSTAYMELRSLRSDDTAVYYCARDSSSSWARWFFDLWGRGTLVTVSS
VL: SYVLTQPPSVSVAPGKTARITCGGNIIGSKLVHWYQQKPGQAPVLVIYDDGDRPSGIPERFSGSNSGNTATLTISRVEAGDEADYYCQVWDTGSDPVVFGGGTKLTVL
B1: the “IC50, TF-1 cell proliferation assay” value in test [1] is 2 nM.

B2: BAK1183H4 scFv (scFv, V domains shown)
VH: QVQLVQSGAEVKKPGASVKVSCKASGYTFTNYGLSWVRQAPGQGLEWMGWINYDGGNTQYGQEFQGRVTMTTDTSTSTAYMELRSLRSDDTAVYYCARDSSSSWARWFFDLWGRGTLVTVSS
VL: SYVLTQPPSVSVAPGKTARITCGGNIIGSKLVHWYQQKPGQAPVLVIYDDGDRPSGIPERFSGSNSGNTATLTISRVEAGDEADYYCQVWDTGSDPVVFGGGTKLTVL
B2: in test [2], the “Mean TF1 IC50” value was found to be 0.2 nM.

B3: BAK502G9 scFv (scFv, V domains shown)
VH: QVQLVQSGAEVKKPGASVKVSCKASGYTFTNYGLSWVRQAPGQGLEWMGWISANNGDTNYGQEFQGRVTMTTDTSTSTAYMELRSLRSDDTAVYYCARDSSSSWARWFFDLWGRGTLVTVSS
VL: SYVLTQPPSVSVAPGKTARITCGGNIIGSKLVHWYQQKPGQAPVLVIYDDGDRPSGIPERFSGSNSGNTATLTISRVEAGDEADYYCQVWDTGSDPVVFGGGTKLTVL
In the case of B3, the “Mean TF1 IC50” value in test [2] is 8 nM.

B4: BAK1167F2 scFv (scFv, V domains shown)
VH: QVQLVQSGAEVKKPGASVKVSCKASGYTFEQTGVSWVRQAPGQGLEWMGWISANNGDTNYGQEFQGRVTMTTDTSTSTAYMELRSLRSDDTAVYYCARDSSSSWARWFFDLWGRGTLVTVSS
VL: SYVLTQPPSVSVAPGKTARITCGGNIIGSKLVHWYQQKPGQAPVLVIYDDGDRPSGIPERFSGSNSGNTATLTISRVEAGDEADYYCQVWDTGSDPVVFGGGTKLTVL
In the case of B4, the “Mean TF1 IC50” value in test [2] was 0.2 nM.

B5: BAK1183H4 IgG4 (antibody, V domains shown)
VH: QVQLVQSGAEVKKPGASVKVSCKASGYTFTNYGLSWVRQAPGQGLEWMGWINYDGGNTQYGQEFQGRVTMTTDTSTSTAYMELRSLRSDDTAVYYCARDSSSSWARWFFDLWGRGTLVTVSS
VL: SYVLTQPPSVSVAPGKTARITCGGNIIGSKLVHWYQQKPGQAPVLVIYDDGDRPSGIPERFSGSNSGNTATLTISRVEAGDEADYYCQVWDTGSDPVVFGGGTKLTVL
Consider B5, for which the “IC50, HDLM-2 cell proliferation assay” value in test [3] amounted to 3500 nM.

These data come from patent US20050065327A1 (AstraZeneca / MedImmune, published 2005).
